Experimental data published in patent US9856300B2, “Dpy-30 binding peptides and methods of use” (Marquette University, priority 2011, dated 2018).
No end group written: not given here.

B1: RSP396-180: GST-tagged RSP3 fragment a.a. 96-180 that harbors the RIIa-binding AHR at a.a.#161-178 (protein)
chain: HIDIQTDVYLEELTDTVPEADTSTQTDAFLDRPPTPLFVPQKTGTDAITQIENGDLFDFDFEVEPILEVLVGKVLEQGLMEVLEE
modifications: left off: a dimerising Fc or GST

Tests used:
RIIα D/D (a.a.#1-64) = target: T1, RIIα D/D (a.a.#1-64) (Mus musculus, UniProt P12367, S2G); test: Ni-NTA pulldown with His-RIIα D/D; type: binding; conditions: 300 mM NaCl buffers
T1 construct: made in house; host or cells: E. coli BL21(DE3); template pRSETB-RIIα from Dr. Susan Taylor
Description: (§1) Most AHs are mono-specific to RIIα D/D except a few that are either RIα D/D-specific (Angelo and Rubin, 1998; Means et al., 2011; Welch et al., 2010) or dual specific, binding to both (Huang et al., 1997; Jarnaess et al., 2008). To test if hAsh2 AH can cross-react with PKA's D/D, we created constructs expressing the D/D domain and the flanking sequences from bovine RIα (a.a.#1-81) and mouse RIIα (a.a.#1-64). His-RIα D/D or His-RIIα D/D was co-expressed with GST-RSP396-180, which contains the AH (RSP3160-178) that bind RII in the overlay assay (Gaillard et al., 2001). […] In the eluate, the ratio of RSP396-180-RIα D/D was the lowest, followed by RSP396-180-RIIα D/D and then RSP396-180-RIIα D/D from RSP7, the de facto partner of RSP3. Although RSP396-180 in the extract was also the most concentrated when co-expressed with RSP7's RIIα, this likely is due to effective binding of RSP7's D/D, protecting GST-RSP396-180 from proteolysis, which occurred when GST-RSP396-180 was expressed by itself (not shown). Similarly, when co-expressed with GST-hAsh2593-623, RIα D/D and RIIα D/D were depleted in the flow through but few polypeptides, especially RIIα D/D, were present in the eluate (FIG. 12A, right panel, compare Extract, Post and Elute). […]

RIα D/D (a.a.#1-81) = target: T2, RIα D/D (a.a.#1-81) (Bos taurus, UniProt P00514); test: Ni-NTA pulldown with His-RIα D/D; type: binding, bovine; conditions: 300 mM NaCl buffers
T2 construct: made in house; host or cells: E. coli BL21(DE3); template pRSETB-RIα from Dr. Susan Taylor
Description: as §1, with “shown).” for “shown). Similarly, when co-expressed with GST-hAsh2593-623, RIα D/D and RIIα D/D were depleted in the flow through but few polypeptides, especially RIIα D/D, were present in the eluate (FIG. 12A, right panel, compare Extract, Post and Elute).”
Although both RIα D/D and Dpy-30 D/D have a common α0 helix (Wang et al., 2009), GST-hAsh2593-623 cross reacted with RIα D/D poorly. […] To test this, the samples from repeated experiments were analyzed in the non-reducing SDS-PAGE. […]

Dpy-30 [1] = target: T3, Dpy-30 (Homo sapiens, UniProt Q9C005); test: Ni-NTA pulldown of GST-hAsh2 peptides with His-Dpy-30; type: binding; set-up: Dpy-30 fragments, full length or a.a.#49-99, were amplified using purchased IMAGE cDNA clone #4081996 as a template; made in house; host or cells: E. coli BL21(DE3); key to co-purified with Dpy-30: “+” or “−” indicates if the peptides were or were not evidently co-purified with Dpy-30; “+” or “−” indicates if the peptides were or were not evidently co-purified with Dpy-30
Description: To test this, we performed pull down assays for His-Dpy-30 and GST-hAsh2593-623. The human Ash2 fragment contains a helix with two typical and three atypical ΦΦXX motifs. The hAsh2 DNA was fused downstream to GST DNA by PCR and the product was cloned into an expression vector. Three clones—#9 and #14 with the expected in-frame fusion and #6 with an out-of-frame fusion—were expressed in bacteria. Their extract was mixed with equal volume of bacterial extract with His-Dpy-30; and the mixture was subjected to Ni-NTA purification. […] Thus hAsh2593-623 interacts with Dpy-30 specifically.
Table 3 illustrates the protein sequences of hAsh2's C-terminal region (hAsh2593-623) and its variants, where “+” or “−” indicates if the peptides were or were not evidently co-purified with Dpy-30. The shorter fusion protein GST-hAsh2593-617 that terminated right after the last possible ΦΦXX-like motif, VETE (SEQ ID NO:35), in the helix was also co-purified with His-Dpy-30 (FIG. 11B, arrow and double arrowheads), no matter expressed separately or co-expressed. Both polypeptides were depleted in the flow through of Ni-NTA matrix (Post in FIG. 11B) and retained in the eluate.
All expression constructs were transformed or co-transformed into BL21(DE3) cells. The colonies were selected based on the antibiotic-resistant gene in each plasmid. The cultures were induced with 1 mM IPTG overnight at 18° C. The cell pellet from a 5-ml culture was resuspended in 750-μl lysis buffer supplemented with Complete Mini EDTA-free protease inhibitor cocktail tablets (Roche) and the suspension was sonicated on ice using Branson digital Sonifier until clarified (Emerson Industrial Automation). The sonicated mixtures were centrifuged at 4° C., 12,000 rpm for 25 min. The supernatant or combinations of supernatants as indicated were incubated with ˜100 μl Ni-NTA (Qiagen or Clontech) or Glutathione Sepharose 4B (Amersham Biosciences) for 1 hour at room temperature. The matrix was subsequently washed as instructed by manufacturers, unless indicated otherwise.
Bacterial extract, flow through and eluate in 1× Laemmli samples buffer were boiled for 5 min. In general, 10 μl samples were loaded in each lane in 4-20% precast acrylamide gels (Bio-Rad or DGEL Electrosystem, Canada) or 14% manually cast gels.

[2] = target: T4, Dpy-30 domain only (Dpy-3045-99) (Homo sapiens, UniProt Q9C005); test: Ni-NTA pulldown of GST-tagged RSP3 peptides with the Dpy-30 domain only; type: binding
T4 construct: made in house; host or cells: E. coli BL21(DE3), co-expressed with the GST-RSP3 peptides
Protocol: (§2) The experiments were further conducted on smaller segments within a.a.#269-316. GST-RSP3280-316 and GST-RSP3280-308, but not GST-RSP3280-306, were also pulled down by His-Dpy-30 (FIG. 7E, left panel). […] To ensure that the co-purification occurs through the Dpy-30 domain rather than its flanking sequence, the same experiment was conducted with the Dpy-30 domain only (Dpy-3045-99, Wang et al., 2009). The results from the experiments using Dpy-30 domain alone or full-length Dpy-30 protein were similar (FIG. 7E, right panel). Based on the similar dimensions of the RIIa and Dpy-30 domains (FIG. 1), we tested if the Dpy-30 binding peptide is centered on the 18-a.a. helix at the a.a.#291-308 by mutating V300 in the middle of the region into P, a strategy used to study AHR (Gaillard et al., 2001; Carr et al., 1992). […] RSP3291-308.
For Ni-NTA (Qiagen) affinity co-purification, GST-tagged RSP3 constructs and His-tagged HDpy-30 constructs were co-transformed into BL21(DE3) cells. The recombinant proteins were induced using 1 mM IPTG overnight at 16° C. Following induction, the cell pellet from a 5-ml culture was resuspended in 750 μl lysis buffer and sonicated using Branson digital Sonifier (Emerson Industrial Automation). The sonicated mixtures were centrifuged at 4° C., 12,000 rpm for 25 min. The supernatant was incubated with 100 μl Ni-NTA for 1 hour at room temperature. […]

Dpy-30 [3] = target: T3, Dpy-30; test: Ni-NTA pulldown of GST-tagged RSP3 peptides with His-tagged human Dpy-30 protein; type: binding; set-up: made in house; host or cells: E. coli BL21(DE3), co-expressed with the GST-RSP3 peptides; conditions: full-length human His-Dpy-30 co-expressed with GST-RSP3 peptide
Description: (§3) Based on the phenotypes of RSP3 transgenic strains (FIG. 4), an in vitro approach was taken to test that RSP3269-316 contains a Dpy-30 domain binding site. RIIa-binding AHs are 14-18-a.a. long. Some of AHs are clearly comprised of ΦΦXX repeats in which the first two residues are hydrophobic residues (Φ) positioned to interact with complementary residues at the binding grooves of the RIIa domain (Burns-Hamuro et al., 2003; Kinderman et al., 2006; Sarma et al., 2010), whereas for the other RIIa-binding AHs the repeats are not as evident (Gold et al., 2006; Gaillard et al., 2001). Typical ΦΦXX repeats were noted within the Dpy-30 binding fragment in BIG1 at the trans-Golgi network but were not tested yet (Xia et al., 2010). For RSP3269-316, typical and degenerate ΦΦXX repeats are present throughout this region, thus the precise Dpy-30 binding site was determined objectively by Ni-NTA pulldown. As a control, the His-tagged RIIa domain from RSP7 was co-expressed with the GST-tagged RSP396-180 that harbors AHR at a.a.#161-178 (Gaillard et al., 2001; FIG. 3) and both polypeptides were co-purified by Ni-NTA (FIG. 7A). Various Dpy-30 domain containing RSP2 and RSP23 polypeptides were tested but were not compatible for this assay due to poor expression or precipitation propensity. Therefore we used the His-tagged human Dpy-30 protein for Ni-NTA pulldown instead. As expected, both GST-RSP3245-316 and GST-RSP3269-316 were co-purified with His-Dpy-30 by Ni-NTA (FIGS. 7B and 7C). In contrast, the GST control was not co-purified (FIG. 7D).
as §2
For Ni-NTA (Qiagen) affinity co-purification, GST-tagged RSP3 constructs and His-tagged HDpy-30 constructs were co-transformed into BL21(DE3) cells. The recombinant proteins were induced using 1 mM IPTG overnight at 16° C. Following induction, the cell pellet from a 5-ml culture was resuspended in 750 μl lysis buffer and sonicated using Branson digital Sonifier (Emerson Industrial Automation). The sonicated mixtures were centrifuged at 4° C., 12,000 rpm for 25 min. The supernatant was incubated with 100 μl Ni-NTA for 1 hour at room temperature. The matrix was subsequently washed thrice and elution was carried out as instructed by the manufacturer.

RIIa domain from RSP7 = test: Ni-NTA pulldown with His-tagged RIIa domain from RSP7; type: binding, Chlamydomonas; conditions: co-expressed in bacteria
Description: as §3
Based on the structural similarity, we tested for the cross-recognition of His-Dpy-30 and AHR (GST-RSP3g); and RSP7's RIIa and AHD (GST-RSP3280-308) by the described Ni-NTA pulldown assay. […] Thus Dpy-30 that has a deep pocket from an additional α-helix recognizes both AHR and AHD, whereas RSP7's RIIa, as PKA's RII, only binds RSP3's AHR(Gaillard et al., 2001). […]

T3 sequence (Q9C005 whole entry, the tested form may be a part): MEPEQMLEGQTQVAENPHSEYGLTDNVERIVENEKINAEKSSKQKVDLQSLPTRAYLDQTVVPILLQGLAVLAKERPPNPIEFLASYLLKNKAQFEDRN
T2 sequence (P00514 1-81): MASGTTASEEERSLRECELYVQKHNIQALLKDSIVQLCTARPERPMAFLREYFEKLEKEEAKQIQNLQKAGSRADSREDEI
T1 sequence (P12367 1-64 S2G limits assumed): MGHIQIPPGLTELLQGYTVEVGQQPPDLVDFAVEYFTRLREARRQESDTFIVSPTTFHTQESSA
T4 sequence (Q9C005 45-99): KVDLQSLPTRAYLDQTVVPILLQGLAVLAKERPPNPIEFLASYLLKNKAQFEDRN

Molecule | co-purification with His-RIIα D/D (RIIα D/D (a.a.#1-64)) | co-purification with His-RIα D/D (RIα D/D (a.a.#1-81)) | co-purified with Dpy-30 (Dpy-30 [1]; GST-fused hAsh2 peptides, Ni-NTA pulldown, Coomassie-stained SDS-PAGE) | co-purification with His-Dpy-30 (Dpy-30 [1]; full-length His-Dpy-30, Ni-NTA, result in words) | binding to the Dpy-30 domain [2] | co-purification / pulldown with His-Dpy-30 (Dpy-30 [3]) | co-purification / pulldown with His-RIIa from RSP7 (RIIa domain from RSP7) | co-purification / pulldown with His-RIIa from RSP7 (RIIa domain from RSP7; listed as GST-RSP390-180)
PMSDMGWGAVVKHTLADVLYHVETEVDGRRS (also: GST fusion) [E604K, GST-hAsh2593-623 with E604 mutated to K] | substantially enhanced the pulldown | not | + | still pulled down substantially |  |  |  | 
V300P: GST-tagged RSP3280-316 with V300 mutated into P (PWLKEQAIGYLARGVVARRVPDKLVEDAAAALAANRS; also: GST tag) |  |  |  |  | abrogated the binding | abrogated the binding |  | 
B1 |  | the lowest |  |  |  | pulled down | co-purified | most efficient
